According to publication PMC2806920:

Legend:
[1] = target: Truncated recombinant LRRK2 wild-type (aa 970-2527) (human) (UniProt Q5S007)
[2] = target: Truncated recombinant LRRK2-G2019S (aa 970-2527) (human) (UniProt Q5S007)

Km for 4E-BP of its phosphorylation by LRRK2 (in vitro kinase assay, 33P incorporation, 12 nM LRRK2, 1.5-12 µM 4E-BP, Michaelis-Menten fit) [1]: 2.69 µM
Km for 4E-BP of its phosphorylation by LRRK2-G2019S (in vitro kinase assay, 33P incorporation, 12 nM LRRK2, 1.5-12 µM 4E-BP, Michaelis-Menten fit) [2]: 2.87 µM
Substance: 4E-BP (eukaryotic initiation factor 4E (eIF4E)-binding protein), His6-tagged 4E-BP1 (from UniProt Q13541 1-118) (natural protein)
